# Reference: patent US20210363269A1 (ALX ONCOLOGY, published 2021)
# Residue numbers refer to the chain shown, from its start.
# T1: BL6 mouse SIRP-α (mouse (C57BL/6 strain), UniProt P97797 32-148)
# T1 construct: also called C57BL/6
# T1 sequence: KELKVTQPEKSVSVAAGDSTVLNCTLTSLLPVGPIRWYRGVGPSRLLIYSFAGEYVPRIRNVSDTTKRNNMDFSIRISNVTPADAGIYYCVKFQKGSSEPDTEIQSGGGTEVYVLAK
# T2: cynomolgus SIRP-α (cynomolgus monkey, UniProt Q5TFQ8 30-148 (human entry), limits assumed)
# T2 construct: also called cyno1
# T2 chain: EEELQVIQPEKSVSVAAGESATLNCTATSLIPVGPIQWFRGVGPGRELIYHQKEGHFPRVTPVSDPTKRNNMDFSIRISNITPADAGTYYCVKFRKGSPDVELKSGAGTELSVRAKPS
# T3: BALBc mouse SIRP-α (mouse (BALB/c strain))
# T3 chain: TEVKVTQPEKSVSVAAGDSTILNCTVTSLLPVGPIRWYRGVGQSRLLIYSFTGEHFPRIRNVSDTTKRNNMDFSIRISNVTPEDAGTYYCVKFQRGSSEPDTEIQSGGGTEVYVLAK
# T4: NOD mouse SIRP-α (mouse (NOD strain))
# T4 chain: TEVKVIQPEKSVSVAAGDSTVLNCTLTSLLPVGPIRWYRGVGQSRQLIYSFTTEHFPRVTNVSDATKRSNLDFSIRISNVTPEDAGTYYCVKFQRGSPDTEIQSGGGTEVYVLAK
# T5: mouse 129 SIRP-α (mouse (129 strain), UniProt P97797 32-150)
# T5 construct: also called m129
# T5 chain: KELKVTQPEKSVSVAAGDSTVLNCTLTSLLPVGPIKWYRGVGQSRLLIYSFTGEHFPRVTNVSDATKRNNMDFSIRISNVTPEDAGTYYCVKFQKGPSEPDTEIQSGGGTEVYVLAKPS
# B1: antibody 173 (antibody, V domains shown)
# VH: DVQLVESGGGVVRPGESLRLSCAASGFAFSDHDMSWVRQGPGEGLEWVAGISLRGGVTWYADSVKGRFTISRDNSKNTLYLRLFSLRTEDTAIYYCARESWNTFFDYWGLGTLVTVSS
# VL: EIVLTQSPGTLSLSPGETATLSCRASQNVRSNLAWYQQKPGQAPRLLIYDASSRATGIPDRFSGSGSGTDFTLTISSLQSEDFAVYYCQQYGNGPPLTFGGGTKVEIK
# notes: also called S173
# B2: antibody 209 (antibody, V domains shown)
# VH: DVQLVESGGAVVRPGESLRLSCKASGFTFTNFAMSWVRQAPGEGLEWVSGISGSDDTTYYADSVKGRFTISRDNSESTLYLQMNSLRAEDTAVYYCVKDSTVSWNTFFDYWGLGTLVTVSS
# VL: ALTQPASVSANLGGTVKITCSGGYGSDDGSSSYYGWYQQKSPGSAPVILIYWDDKRPSDIPSRFSGSTSGSTTTLTITGVQAEDEAVYFCGTYDTSSGAIFGAGTTLTVL
# notes: also called S209
# B3: antibody 122 (antibody, V domains shown)
# VH: VQLVESGGGVVRPGESLRLSCAASGFRFSNFAMTWVRQAPGEGLEWVSTIGSGDTYYADSVKGRFTISRDNSKNTLYLQMNSLRAEDTAVYYCAKDSTVSWSGDFFDYWGLGTLVTVSS
# VL: EIVLTQSPATLSVSPGERATFSCRASQNVKNDLAWYQQRPGQAPRLLIYAARIRETGIPERFSGSGSGTEFTLTITSLQSEDFAVYYCQQYYDWPPFTFGGGTKVEIK
# notes: also called S122
# B4: antibody 149 (antibody, V domains shown)
# VH: DVQLVESGGGVVRPGESLRLSCAASGFTFSNFAMNWVRQAPGEGLEWVSLISVTATTYYADSVKGRFTISRDNSKNTLYLQMNSLRAEDTAVYYCAKVTWNNLFDYWGLGTLVTVSS
# VL: EIVLTQSPGTLSLSPGERATLSCRASQPIDSYLAWYQQKPGQAPRLLIYNTVTRATGIPDRFSGSGSGTDFTLTINRLEPEDFAVYYCQHQYDWPPYIFGGGTKVEIK
# notes: also called S149
# B5: antibody 161 (antibody, V domains shown)
# VH: B4 VH with N35T, E43K, L45P, I51V, N76S, V98I
# VL: EIVLTQSPGTLSLSPGERATLSCRASQTVGSKLAWYQQKPGQAPRLLIYDSSSRASGIPDRFSGSGSGTDFTLTISSLQSEDSAVYYCQQHNDWPPYTFGGGTKVEIK
# notes: also called S161
# B6: antibody 115 (antibody, V domains shown)
# VH: DVQLVESGGGVVRPGESLRLSCAASGFSFSSYAMNWVRQAPGEGLEWVSRINSGGGGTDYAESVKGRFTISRDNSENTLYLQMNSLRAEDTAVYYCAKQYDWNSFFDYWGLGALVTVSS
# VL: ETVLTQSPATLSVSPGERATLSCRASQTVGSKLAWHQQKPGQAPRLLIYDATNRATGISDRFSGSGSGTDFTLTISSLQTEDSAVYYCQQYYYWPPYRFGGGTKVEIK
# notes: also called S115
# B7: antibody 116 (antibody, V domains shown)
# VH: VQLVESGGGVVRPGESLRLSCAASGFSFSSYAMNWVRQAPGEGLEWVSRINSGGGGTDYAESVKGRFTISRDNSENTLYLQMNSLRAEDTAVYYCAKQYDWNSFFDYWGLGALVTVSS
# VL: B6 VL with G66R
# notes: also called S116
# B8: antibody 117 (antibody, V domains shown)
# VH: B7 VH with S103G
# VL: B6 VL with S59P
# notes: also called S117
# B9: antibody 118 (antibody, V domains shown)
# VH: B7 VH with S103G
# VL: B6 VL with T52S, N53R, S59P
# notes: also called S118
# B10: antibody 119 variant, light chain Mut / heavy chain wt (antibody, V domains shown)
# VH: DVQLLESGGGVVQPGGSLRLSCAASGFSFSNFAMTWVRQAPGEGLEWVSTIGSGDTYYADSVKGRFTISRDNSKNTLYLQMNSLRAEDTAVYYCAKDSTVSWSGDFFDYWGLGTLVTVSS
# VL: B3 VL with F21L, R39K, E60A, T76S
# B11: antibody 119 variant, light chain wt / heavy chain Mut (antibody, human IgG1, V domains shown)
# VH: B10 VH with D1E, M34V, E43K, L112Q
# VL: B3 VL
# B12: antibody 135 variant, light chain Mut / heavy chain wt (antibody, V domains shown)
# VH: B10 VH with L5V, Q13R, G16E, N31I, F32Y, T35S, S53A, G54D, S101G
# VL: EIVLTQSPATLSVSPGERVTLSCRASQNVRSDIAWYQQKPGQAPRLLIYAASSRDTGIPARFSGSGSGTDFTLTISSLQSEDFGVYYCQQYYDWPPFTFGGGTKVEIK
# B13: antibody 135 variant, light chain wt / heavy chain Mut (antibody, V domains shown)
# VH: EVQLVESGGGVVQPGGSLRLSCAASGFSFSIYAVSWVRQAPGKGLEWVSTIGADDTYYADSVKGRFTISRDNSKNTLYLQMNSLRAEDTAVYYCAKDSTVGWSGDFFDYWGQGTLVTVSS
# VL: B12 VL with L21F, A60D
# B14: antibody 174 (antibody, V domains shown)
# VH: B1 VH with A28T
# VL: B1 VL
# notes: also called S174
# Target: T6, human SIRP-α v2 (human)
# T6 construct: also called Human v2; Human V2
# T6 sequence (chain, as listed by the source limits assumed): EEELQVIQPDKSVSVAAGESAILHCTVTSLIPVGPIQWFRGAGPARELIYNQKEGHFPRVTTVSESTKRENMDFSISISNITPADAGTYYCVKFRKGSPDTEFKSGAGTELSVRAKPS
# Experiment: SPR
# Procedure, shortened: (§1)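 KD values were derived as kd/ka from apparent rate constants obtained by globally fitting double-referenced data to a simple Langmuir model. The data came from a ProteOn XPR36 biosensor run at 25° C in PBS pH 7.4 with 0.01% Tween-20. There, purified antibodies sat on a GLC chip by amine coupling or on an NLC chip by biotinylated Protein A capture, and SIRP analytes were injected in one-shot kinetic mode at nominal concentrations set from A280 absorbance.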
row,Kd,Binder
1,9.28 nM,B1
2,5.01 nM,B2
3,0.0778 nM,B3
4,0.238 nM,B4
5,0.127 nM,B5
6,0.015 nM,B6
7,0.299 nM,B7

# Target: T7, human SIRP-α v1 (human, UniProt P78324 31-149)
# T7 construct: also called Human v1; Human V1
# T7 sequence (P78324 31-149 limits assumed): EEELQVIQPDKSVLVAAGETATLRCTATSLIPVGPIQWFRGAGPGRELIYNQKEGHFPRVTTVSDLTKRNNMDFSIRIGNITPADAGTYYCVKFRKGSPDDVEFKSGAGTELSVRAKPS
# Experiment: SPR
# Procedure, shortened: as §1
row,Kd,Binder
1,0.937 nM,B1
2,0.171 nM,B2
3,0.214 nM,B3
4,0.873 nM,B4
5,1.03 nM,B5
6,0.0177 nM,B6
7,0.0312 nM,B8
8,0.11 nM,B7
9,0.0403 nM,B9

# Target: T1, BL6 mouse SIRP-α
# Experiment: SPR, antibody on GLC chip
# Procedure, shortened: (§2)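 SIRP analytes were run over antibody surfaces in PBS pH 7.4 with 0.01% Tween-20 at 25° C, using one-shot injections at 100, 33, 11, 3.7, 1.2 and 0 nM. The antibodies, purified by Protein A, had been amine-coupled (~1000 RU) to a GLC chip of a ProteOn XPR36 biosensor from an 80 nM solution in 10 mM sodium acetate pH 4.5. Association lasted 90 s at a flow of 100 μL/min, and dissociation lasted 1200 s. KD equals kd/ka, obtained by fitting double-referenced data globally to a Langmuir model.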
row,binding result,Binder
1,no binding,B10
2,no binding,B11
3,no binding,B12
4,no binding,B13

# Target: T2, cynomolgus SIRP-α
# Experiment: SPR, antibody on GLC chip
# Procedure, shortened: as §2
row,Kd,Binder
1,0.138 nM,B10
2,0.155 nM,B11
3,0.102 nM,B12
4,0.125 nM,B13

# Target: T6, human SIRP-α v2
# Experiment: SPR, antibody on GLC chip
# Procedure, shortened: as §2
row,Kd,Binder
1,0.0864 nM,B10
2,0.0694 nM,B11
3,0.0266 nM,B12
4,0.0197 nM,B13

# Target: T8, human SIRPγ isoform 1 (human, UniProt Q9P1W8 29-147)
# T8 construct: also called Gamma; Human SIRPg
# T8 sequence (Q9P1W8 29-147 limits assumed): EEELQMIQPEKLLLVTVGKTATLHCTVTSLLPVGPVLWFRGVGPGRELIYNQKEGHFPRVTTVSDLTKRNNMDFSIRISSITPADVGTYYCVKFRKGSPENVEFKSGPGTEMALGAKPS
# Experiment: SPR, antibody on GLC chip
# Procedure, shortened: as §2
row,Kd,Binder
1,0.233 nM,B10
2,0.522 nM,B12
3,0.779 nM,B13

# Target: T7, human SIRP-α v1
# Experiment: SPR, antibody on GLC chip
# Procedure, shortened: as §2
row,Kd,Binder
1,0.214 nM,B10
2,0.254 nM,B11
3,0.149 nM,B12
4,0.184 nM,B13

# Target: T3, BALBc mouse SIRP-α
# Experiment: SPR, antibody on GLC chip
# Procedure, shortened: as §2
row,binding result,Binder
1,no binding,B10
2,no binding,B11
3,no binding,B12
4,no binding,B13

# Target: T4, NOD mouse SIRP-α
# Experiment: SPR, antibody on GLC chip
# Procedure, shortened: as §2
row,binding result,Binder
1,no binding,B10
2,no binding,B11
3,no binding,B12
4,no binding,B13

# Target: T2, cynomolgus SIRP-α
# Experiment: SPR Koff +/-
# Procedure, shortened: as §1
row,binding result,Binder
1,no binding,B1
2,no binding,B14
3,no binding,B2
4,binds,B3
5,binds,B6
6,binds,B8
7,binds,B7
8,binds,B9

# Target: T8, human SIRPγ isoform 1
# Experiment: SPR Koff +/-
# Procedure, shortened: as §1
row,binding result,Binder
1,no binding,B1
2,no binding,B14
3,no binding,B2
4,binds,B3
5,no binding,B4
6,no binding,B5
7,binds,B6
8,binds,B8
9,binds,B7
10,binds,B9

# Target: T5, mouse 129 SIRP-α
# Experiment: SPR Koff +/-
# Procedure, shortened: as §1
row,binding result,Binder
1,no binding,B1
2,no binding,B14
3,no binding,B3
4,no binding,B4
5,no binding,B5
6,no binding,B6
7,no binding,B8
8,no binding,B7
9,no binding,B9

# Target: T9, human SIRPβ isoform 1 (human, UniProt O00241 30-148)
# T9 construct: also called Beta; Human SIRPb
# T9 sequence (O00241 30-148 limits assumed): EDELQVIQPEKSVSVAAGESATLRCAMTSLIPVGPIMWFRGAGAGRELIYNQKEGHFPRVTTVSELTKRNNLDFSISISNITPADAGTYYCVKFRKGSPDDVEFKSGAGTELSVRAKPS
# Experiment: SPR Koff +/-
# Procedure, shortened: as §1
row,binding result,Binder
1,no binding,B1
2,no binding,B14
3,binds,B3
4,binds,B6
5,binds,B8
6,binds,B7
7,binds,B9
